Experimental data taken from patent US20260001953A1 (TWIST BIOSCIENCE, published 2026).
Positions count from the first letter of the chain named.

B1: SIGLEC-8-33 (antibody, human IgG1, kappa, V domains shown)
VH: EVQLLESGGGLVQPGGSLRLSCAASGFAFSDYAMSWVRQAPGKGLEWVSAITGSGDYTYYADSVKGRFTISRDNSKNTLYLQMNSLRAEDTAVYYCARDTGGMDVWGQGTLVTVSS
VL: DIQMTQSTSSLSASVGDRVTITCRASQSIHSYLNWYQQKPGKAPILIYAASSLERGVPSRFSGSGSGTDFTLTISSLQPEDFATYYCQQSYITPYSFGGGTKVEIKR
notes: tested as expressed and purified mAb
B2: SIGLEC-8-29 (antibody, human IgG1, kappa, V domains shown)
VH: EVQLLESGGGLVQPGGSLRLSCAASGFTFSRHAMTWVRQAPGKGLEWVSAISSSGDNTYYVDSVKGRYTISRDNSKNTLYLQMNSLRAEDTAVYYCARIHRNGHAFDIWGQGTLVTVSS
VL: DIQMTQSPSSLSASVGDRVTITCRASQSIHTYLNWYQQKPGKAPKLLIYGASTLRSGVPSRFSGSGSGTDFTLTISSLQPEDFATYYCQQSYSTPLLTFGGGTKVEIKR
notes: as for B1
B3: SIGLEC-8-13 (antibody, human IgG1, kappa, V domains shown)
VH: EVQLLESGGGLVQPGGSLRLSCAASGFTFSSYDMNWVRQAPGKGLEWVSAISGSGVGTYYADSVKGRFTISRDNSKNTLYLQMNSLRAEDTAVYYCSKDVRWSPGGMDVWGQGTLVTVSS
VL: DIQMTQSPSSLSASVGDRVTITCRASQSVSIYLNWYQQKPGKAPKLLIYATSNLHSGVPSRFSGSGSGTDFTLTISSLQPEDFATYYCQQSHSTPYTFGGGTKVEIKR
notes: as for B1
B4: SIGLEC-8-47 (antibody, human IgG1, kappa, V domains shown)
VH: EVQLLESGGGLVQPGGSLRLSCAASGFTFSTHAMSWVRQAPGKGLEWVSTISGSGDITYYADSVKGRFTISRDNSKNTLYLQMNSLRAEDTAVYYCARQSRGGSLGMDVWGQGTLVTVSS
VL: B3 VL with S28T, V29I, I31R, T51A, H55Y, H92F, S93A
notes: as for B1
B5: SIGLEC-8-38 (antibody, human IgG1, kappa, V domains shown)
VH: EVQLLESGGGLVQPGGSLRLSCAASGFTFSPYAMSWVRQAPGKGLEWVSGIGGSGGSTYYADSVKGRFTISRDNSKNTLYLQMNSLRAEDTAVYYCARDYGGYYFDYWGQGTLVTVSS
VL: B3 VL with S28Y, V29I, I31N, N53T, H55E, S91G, H92Y, T94V, Y96W
notes: as for B1
B6: SIGLEC-8-23 (antibody, human IgG1, kappa, V domains shown)
VH: EVQLLESGGGLVQPGGSLRLSCAASGLTFSSYAMSWVRQAPGKGLEWVSAISGSGVGTYYADSVKGRFTISRDNSKNTLYLQMNSLRAEDTAVYYCAKHTSSSWYPLDYWGQGTLVTVSS
VL: B3 VL with A25S, V29I, S30T, I31T, T51A, H55Y, S93T, Y96L
notes: as for B1
B7: SIGLEC-8-50 (antibody, human IgG1, kappa, V domains shown)
VH: EVQLLESGGGLVQPGGSLRLSCAASGFTLSNYAMTWVRQAPGKGLEWVSTVSGSGASTYYADSVKGRFTISRDNSKNTLYLQMNSLRAEDTAVYYCAREDSGKYLSLDYWGQGTLVTVSS
VL: DIQMTQSPSSLSASVGDRVTITCRASQSIGSYLNWYQQKPGKAPKLLIYSASSLQTGVPSRFSGSGSGTDFTLTISSLQPEDFATYYCQQTYNTPITFGGGTKVEIKR
notes: as for B1
B8: SIGLEC-8-14 (antibody, human IgG1, kappa, V domains shown)
VH: EVQLLESGGGLVQPGGSLRLSCAASGFSFSNHAMTWVRQAPGKGLEWVSGISGSSGSTYYADSVKGRFTISRDNSKNTLYLQMNSLRAEDTAVYYCAREGRVAAYFDSWGQGTLVTVSS
VL: B7 VL with S28G, G30S, S31G, S50G, S53R, T56N, T91S, N93T
notes: as for B1
B9: SIGLEC-8-55 (antibody, human IgG1, kappa, V domains shown)
VH: EVQLLESGGGLVQPGGSLRLSCAASGFTFDDYAMSWVRQAPGKGLEWVSYISGSGGSTYYADSVKGRFTISRDNSKNTLYLQMNSLRAEDTAVYYCAKYRRYDSGLGGFDYWGQGTLVTVSS
VL: B7 VL with Q27R, G30D, S31T, S50D, S53T, T56G, T91S, N93V, I96P
notes: tested as expressed and purified mAb; also called SIGLEC-55
B10: SIGLEC-8-3 (antibody, human IgG1, kappa, V domains shown)
VH: EVQLLESGGGLVQPGGSLRLSCAASGFTFSTYDMTWVRQAPGKGLEWVSSIGGSGRSTYYADSVKGRFTISRDNSKNTLYLQMNSLRAEDTAVYYCARGSASAWFAFDYWGQGTLVTVSS
VL: B7 VL with G30A, S31R, S50G, S53D, T56S, T91S, N93R, P95S, I96Y
notes: as for B1
B11: SIGLEC-8-6 (antibody, human IgG1, kappa, V domains shown)
VH: B7 VH with T28S, L29F, N31S, A33G, T35S, V51I, A56G, S57G, D100E, Y109H
VL: B7 VL with S28T, G30R, S50A, Q55H, T91S, N93T
notes: as for B1
B12: SIGLEC-8-9 (antibody, human IgG1, kappa, V domains shown)
VH: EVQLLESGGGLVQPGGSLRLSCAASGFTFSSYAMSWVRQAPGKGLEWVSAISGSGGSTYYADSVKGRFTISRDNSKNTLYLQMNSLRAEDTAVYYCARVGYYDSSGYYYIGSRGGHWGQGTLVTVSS
VL: B7 VL with A25T, S28T, G30S, S31T, S50D, S53D, T56S, T91N, N93I, I96N
notes: as for B1
B13: SIGLEC-8-2 (antibody, human IgG1, kappa, V domains shown)
VH: B4 VH with T31K, T50G, D56A, I57R
VL: B7 VL with S28R, G30S, S50G, S53I, S76N, Q90E, T91S, N93S, I96F
notes: as for B1
B14: SIGLEC-8-28 (antibody, human IgG1, kappa, V domains shown)
VH: EVQLLESGGGLVQPGGSLRLSCAASGSPFSNYAMSWVRQAPGKGLEWVSSISGGGASTYYADSVKGRFTISRDNSKNTLYLQMNSLRAEDTAVYYCAREKDNSWFGMDVWGQGTLVTVSS
VL: B7 VL with G30D, S31R, S50G, S53T, N93S
notes: as for B1
B15: SIGLEC-8-49 (antibody, human IgG1, kappa, V domains shown)
VH: EVQLLESGGGLVQPGGSLRLSCAASGFTFSTYAMHWVRQAPGKGLEWVSTISASGGSTYYADSVKGRFTISRDNSKNTLYLQMNSLRAEDTAVYYCAKSGGADYYYYGMDVWGQGTLVTVSS
VL: B7 VL with S31Y, S50G, A51T, T56S, T91S, N93S, I96L, T97N
notes: as for B1
B16: SIGLEC-8-39 (antibody, human IgG1, kappa, V domains shown)
VH: EVQLLESGGGLVQPGGSLRLSCAASGFTFSRYGMSWVRQAPGKGLEWVSATSGSGGTTYYADSVKGRFTISRDNSKNTLYLQMNSLRAEDTAVYYCARVGGSGWYPNDYWGQGTLVTVSS
VL: B7 VL with I29V, G30S, S31R, Y32F, S50G, S53T, T91S, N93T, I96H
notes: as for B1
B17: SIGLEC-8-25 (antibody, human IgG1, kappa, V domains shown)
VH: EVQLLESGGGLVQPGGSLRLSCAASGFTFSKYAMDWVRQAPGKGLEWVSDISGSGGTTYYADSVKGRFTISRDNSKNTLYLQMNSLRAEDTAVYYCVRAGLVGYDFDIWGQGTLVTVSS
VL: B7 VL with Q27E, G30S, S50G, S53I, T56G, T91S, N93S, T94F
notes: as for B1
B18: SIGLEC-8-59 (antibody, human IgG1, kappa, V domains shown)
VH: EVQLLESGGGLVQPGGSLRLSCAASGFTFTSYAVSWVRQAPGKGLEWVSSISGSGGSAYYADSVKGRFTISRDNSKNTLYLQMNSLRAEDTAVYYCARDTVGYGMDVWGQGTLVTVSS
VL: B7 VL with S28T, G30S, S31G, N34S, S53R, Q55H, T56S, T91G, N93S, I96L
notes: as for B1
B19: SIGLEC-8-15 (antibody, human IgG1, kappa, V domains shown)
VH: EVQLLESGGGLVQPGGSLRLSCAASGFTFSTYTMNWVRQAPGKGLEWVSVISGSGDDTYYADSVKGRFTISRDNSKNTLYLQMNSLRAEDTAVYYCTRAGEQHHYYGMDVWGQGTLVTVSS
VL: B7 VL with S28T, G30S, S31T, Y32S, S50G, S53T, T56R, Q89R, T91S, N93S
notes: as for B1
B20: SIGLEC-8-16 (antibody, human IgG1, kappa, V domains shown)
VH: B16 VH with R31D, S49L, T51I, G56A, N84D, V99E, G103T, W104Y, P106S, N107L
VL: B3 VL with A25T, V29I, S30G, I31S, H92Y, S93K
notes: as for B1
B21: SIGLEC-8-51 (antibody, human IgG1, kappa, V domains shown)
VH: B16 VH with S30P, S49T, V99D, G100E, G101S, N107K
VL: B3 VL with I31R, Y32F, A50G, T51A, H55E, S56G, H92Y, S93T, Y96H
notes: as for B1
B22: SIGLEC-8-46 (antibody, human IgG1, kappa, V domains shown)
VH: EVQLLESGGGLVQPGGSLRLSCAASGLTFSRYAMSWVRQAPGKGLEWVSTVSGSGVSTYYADSVKGRFTISRDNSKNTLYLQMNSLRAEDTAVYYCARARGGSSRYYYGMDVWGQGTLVTVSS
VL: DIQMTQSPSSLSASVGDRVTITCRASQTIDKYLNWYQQKPGKAPKLLIYGASRLQNGVPSRFSGSGSGTDFTLTISSLQPEDFATYYCQQSYTTPTFGGGTKVEIKR
notes: as for B1

Legend:
[1] = target: T1, SIGLEC-8 transiently expressed on cells (UniProt Q9NYZ4 17-499, limits assumed); assay: cell binding titration, transient SIGLEC-8 line
T1 construct: whole, on cells; Two cassettes are described (P2A mVenus and direct mVenus fusion); also called the transient line; pTT5-SIGLEC-8 P2A mVenus

[2] = target: Sialic acid-binding immunoglobulin-like lectin 8 (SIGLEC-8), antigen of the Carterra SPR studies (UniProt Q9NYZ4 17-363, limits assumed); assay: Carterra SPR
How it was run: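 Binding of antibodies to SIGLEC-8 was followed by surface plasmon resonance on a Carterra instrument to obtain rate constants and dissociation constants. Before these kinetic runs, clones from synthetic antibody libraries were selected by four rounds of bead-based panning and clonal ELISA, then expressed and purified.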

Sequence of Sialic acid-binding immunoglobulin-like lectin 8 (SIGLEC-8), antigen of the Carterra SPR studies (Q9NYZ4 17-363 limits assumed): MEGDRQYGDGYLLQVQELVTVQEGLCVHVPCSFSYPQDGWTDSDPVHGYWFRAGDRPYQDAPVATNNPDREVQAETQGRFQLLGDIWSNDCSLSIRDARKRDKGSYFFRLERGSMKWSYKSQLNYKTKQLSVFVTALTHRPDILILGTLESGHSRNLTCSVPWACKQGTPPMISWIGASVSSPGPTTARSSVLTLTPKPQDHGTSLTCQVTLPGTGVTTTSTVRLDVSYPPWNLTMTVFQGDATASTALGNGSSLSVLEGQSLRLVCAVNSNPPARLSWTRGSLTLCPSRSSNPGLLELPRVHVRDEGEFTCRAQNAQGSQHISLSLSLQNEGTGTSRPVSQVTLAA
T1 sequence (Q9NYZ4 17-499 limits assumed): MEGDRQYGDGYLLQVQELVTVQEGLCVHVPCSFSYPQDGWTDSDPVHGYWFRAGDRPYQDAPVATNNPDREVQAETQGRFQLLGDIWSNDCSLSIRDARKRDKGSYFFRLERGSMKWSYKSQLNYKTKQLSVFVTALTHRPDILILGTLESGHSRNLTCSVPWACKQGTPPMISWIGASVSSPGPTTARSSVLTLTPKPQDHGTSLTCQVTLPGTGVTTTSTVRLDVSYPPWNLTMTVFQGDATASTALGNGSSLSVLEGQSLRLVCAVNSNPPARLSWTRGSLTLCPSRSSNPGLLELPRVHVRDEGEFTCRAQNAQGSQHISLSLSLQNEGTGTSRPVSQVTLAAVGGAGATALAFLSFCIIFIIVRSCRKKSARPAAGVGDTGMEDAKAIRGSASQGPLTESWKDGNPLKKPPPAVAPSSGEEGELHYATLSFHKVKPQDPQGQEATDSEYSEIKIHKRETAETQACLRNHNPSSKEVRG

| Binder | EC50 [1] [nM] | Kd [2] [nM] | binding result [2] |
| --- | --- | --- | --- |
| B1 | 133 | 2.5 |  |
| B2 | 355 | 326 |  |
| B3 | 50.7 |  | no binding |
| B4 | 1.88 | 32.7 |  |
| B5 | 10.6 | 46200 |  |
| B6 | 0.855 | 10.1 |  |
| B7 | 1.15 | 1.21 |  |
| B8 | 20.8 | 65.4 |  |
| B9 | 3.01 | 1.61 |  |
| B10 | 6.46 | 242 |  |
| B11 | 2.43 | 4.68 |  |
| B12 | 1590 | 8080 |  |
| B13 | 8.28 | 160000 |  |
| B14 | 1.02 | 3.49 |  |
| B15 | 1.4 | 88.8 |  |
| B16 | 4.47 | 159 |  |
| B17 | 7.63 | 50.6 |  |
| B18 | 0.939 | 31.2 |  |
| B19 |  | 2.57 |  |
| B20 | 2.87 | 2.02 |  |
| B21 |  | 10 |  |
| B22 | 32.8 | 152000 |  |
